Results: article doi:10.1101/2025.01.01.631016, “A tool to dissect heterotypic determinants of homotypic protein phase behavior” (bioRxiv, 2025)

Molecular target: T1, Avitag-His-TEV-mEos3.1 (Lobophyllia hemprichii EosFP, …, point mutant)
T1 construct: also called purified mEos3.1; pET-Biotin-His6-mEos3.1; source: E. coli BL21 (DE3), co-expressed with BirA, purified (Ni-NTA, anion exchange)
T1 chain: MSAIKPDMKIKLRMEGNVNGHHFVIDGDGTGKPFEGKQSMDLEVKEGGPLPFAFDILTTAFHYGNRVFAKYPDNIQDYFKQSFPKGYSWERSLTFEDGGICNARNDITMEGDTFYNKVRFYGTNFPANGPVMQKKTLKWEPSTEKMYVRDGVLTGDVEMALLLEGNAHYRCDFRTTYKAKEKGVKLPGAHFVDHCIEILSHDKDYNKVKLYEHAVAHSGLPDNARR
Experiment: BLI
Settings: both partners purified

B1: tag free mEosNb (VHH)
VHH: QVQLQESGGGLVQAGGSLRLSCAASGNISQLVYMGWYRQAPGKERELVAGITHGGITYYADSVKGRFTISRDNAKNTVYLQMNSLKPEDTAVYYCAAFQWRSDDVGYLNLGPLEYWGQGTQVTVSS
notes: also called mEos3Nb; nanobody against mEos3; not shown: Avitag, C-terminal, cleaved; His, C-terminal, cleaved
  Kd: 76.8 nM
